From article PMC4359968 (Cancer research, 2015)

Biological target: RAGE-Fc (human RAGE) (human, UniProt Q15109 23-342)
Assay: ELISA

RAGE-Fc (human RAGE), sequence (Q15109 23-342): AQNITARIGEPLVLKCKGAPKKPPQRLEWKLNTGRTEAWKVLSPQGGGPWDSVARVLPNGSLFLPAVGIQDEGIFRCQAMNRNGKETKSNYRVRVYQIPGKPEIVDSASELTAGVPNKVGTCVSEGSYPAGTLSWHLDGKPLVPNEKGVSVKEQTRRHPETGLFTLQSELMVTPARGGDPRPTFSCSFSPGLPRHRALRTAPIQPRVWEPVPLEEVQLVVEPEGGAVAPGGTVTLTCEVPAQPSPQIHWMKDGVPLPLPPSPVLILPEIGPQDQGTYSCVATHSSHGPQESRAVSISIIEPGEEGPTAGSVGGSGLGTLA

B1: human recombinant S100A7 (ligand, UniProt P31151 1-101, looked up)
chain: MSNTQAERSIIGMIDMFHKYTRRDDKIEKPSLLTMMKENFPNFLSACDKKGTNYLADVFEKKDKNEDKKIDFSEFLSLLGDIATDYHKQSHGAAPCSGGSQ
B1: binds.
